Experimental data published in US20210108174A1 (CRISPR THERAPEUTICS, published 2021).

Target: T1, biotinylated recombinant human BCMA (human, UniProt Q02223 1-54, biotinylated)
T1 construct: Bought reagent; also called biotinylated BCMA; Recombinant biotinylated human BCMA (Acro Biosystems Cat:# BC7-H82F0)
T1 sequence (looked up): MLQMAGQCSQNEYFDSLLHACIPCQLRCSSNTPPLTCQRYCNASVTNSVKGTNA
Experiment: flow cytometry, biotinylated BCMA detected with streptavidin-APC on CAR T cells

percent of cells that bound biotinylated BCMA: 60%
B1: Anti-BCMA CAR of CTX-160 (CD28 co-stimulatory domain) (other)
chain: EVQLVESGGGLVQPGGSLKLSCAASGIDFSRYWMSWVRQAPGKGLEWIGEINPDSSTINYADSVKGRFTISRDNAKNTLYLQMNLSRAEDTALYYCASLYYDYGDAMDYWGQGTLVTVSSGGGGSGGGGSGGGGSDIQMTQSPSSLSASVGDRVTITCRASQSVDSNVAWYQQKPEKAPKSLIFSASLRFSGVPSRFSGSGSGTDFTLTISSLQPEDFATYYCQQYNSYPLTFGAGTKLEIKSAAAFVPVFLPAKPTTTPAPRPPTPAPTIASQPLSLRPEACRPAAGGAVHTRGLDFACDIYIWAPLAGTCGVLLLSLVITLYCNHRNRSKRSRLLHSDYMNMTPRRPGPTRKHYQPYAPPRDFAAYRSRVKFSRSADAPAYQQGQNQLYNELNLGRREEYDVLDKRRGRDPEMGGKPRRKNPQEGLYNELQKDKMAEAYSEIGMKGERRRGKGHDGLYQGLSTATKDTYDALHMQALPPR
notes: Chimeric antigen receptor on edited primary human T cells; also called anti-BCMA (CD28) CAR
